Patent US20130195807A1

Target: GHRH receptor (GHRH-R) of rat insulinoma INS-1 cells (rat) (UniProt Q02644)
Assay: cell-based or functional assay

UniProt Q02644, sequence (Q02644 23-464): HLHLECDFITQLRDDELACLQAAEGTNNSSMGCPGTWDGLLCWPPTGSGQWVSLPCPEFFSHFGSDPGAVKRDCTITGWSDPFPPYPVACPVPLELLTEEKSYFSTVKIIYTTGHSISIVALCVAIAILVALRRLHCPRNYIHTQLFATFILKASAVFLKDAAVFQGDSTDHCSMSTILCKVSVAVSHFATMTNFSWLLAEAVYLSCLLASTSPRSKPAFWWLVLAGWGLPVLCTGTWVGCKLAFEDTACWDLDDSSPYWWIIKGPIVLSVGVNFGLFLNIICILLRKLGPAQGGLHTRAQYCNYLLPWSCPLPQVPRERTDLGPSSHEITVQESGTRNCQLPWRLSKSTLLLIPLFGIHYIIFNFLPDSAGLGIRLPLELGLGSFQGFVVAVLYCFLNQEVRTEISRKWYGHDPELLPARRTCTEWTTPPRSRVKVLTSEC

apoptosis of INS-1 cells as indicated by activity of caspases 3 and 7: 20 % reduction | cell proliferation of INS-1 cells: 50 % increase
Substance: GHRH agonist JI-36, (Dat1, Thr8, Orn12,21, Abu15, Nle27, Asp28, Agm29)hGH-RH(1-29) (peptide)
